Results taken from PMC3337949.

Columns and labels:
[1] = biological target: wild type Corkscrew (Csw^WT) (Drosophila); assay: co-IP
[2] = biological target: substrate-trapping Csw, Csw^C583S (Csw^CS) (Drosophila); assay: co-IP

In the case of HA-tagged Draper-II (receptor), the fold change of the co-immunoprecipitated amount against Draper-I [1] is reported as 24 fold and the fold change of the co-immunoprecipitated amount against Csw^WT [2] is reported as 1.7 fold.
